Series [1] deals with T1, 6HisPrpR (PrpRMt) (Mycobacterium tuberculosis H37Rv) (UniProt O06581).
T1 sequence: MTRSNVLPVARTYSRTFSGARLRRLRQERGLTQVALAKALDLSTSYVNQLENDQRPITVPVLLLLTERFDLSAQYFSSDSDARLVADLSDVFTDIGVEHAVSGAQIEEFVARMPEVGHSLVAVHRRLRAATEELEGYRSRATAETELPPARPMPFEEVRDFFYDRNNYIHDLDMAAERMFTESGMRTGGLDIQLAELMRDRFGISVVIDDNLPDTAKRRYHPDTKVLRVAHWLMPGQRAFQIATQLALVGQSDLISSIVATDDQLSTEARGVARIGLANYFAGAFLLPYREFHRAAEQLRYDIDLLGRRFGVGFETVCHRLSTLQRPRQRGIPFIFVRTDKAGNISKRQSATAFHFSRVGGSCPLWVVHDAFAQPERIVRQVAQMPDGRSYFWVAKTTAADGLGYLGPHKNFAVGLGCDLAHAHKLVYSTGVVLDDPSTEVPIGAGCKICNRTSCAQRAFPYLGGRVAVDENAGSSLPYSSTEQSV
The experiment in a line: SPR. To be noted: 50 mM Tris-HCl pH 7.5, 50 mM KCl, 10 mM MgCl2, 10% glycerol, 0.5 mM EDTA; […], SA chip).

Series [2] concerns the target T1, 6HisPrpR (PrpRMt) (Mycobacterium tuberculosis H37Rv). The experiment in a line: EMSA. To be noted: 50 mM Tris-HCl pH 7.5, 50 mM KCl, 10 mM MgCl2, 10% glycerol, 0.5 mM EDTA; […], SA chip). (In general: In EMSA bound probe runs differently from free probe, usually more slowly.)
The test system of series [3] is 6HisPrpR (PrpRMt) (Mycobacterium tuberculosis H37Rv). Put plainly: SPR. To be noted: 50 mM Tris-HCl pH 7.5, 50 mM KCl, 10 mM MgCl2, 10% glycerol, 0.5 mM EDTA; 25 C, 30 min (EMSA, footprinting); same buffer for SPR (BIAcore T3000, SA chip).
Series [4] concerns the target T2, 6HisRamB (UniProt P9WMI1).
T2 sequence: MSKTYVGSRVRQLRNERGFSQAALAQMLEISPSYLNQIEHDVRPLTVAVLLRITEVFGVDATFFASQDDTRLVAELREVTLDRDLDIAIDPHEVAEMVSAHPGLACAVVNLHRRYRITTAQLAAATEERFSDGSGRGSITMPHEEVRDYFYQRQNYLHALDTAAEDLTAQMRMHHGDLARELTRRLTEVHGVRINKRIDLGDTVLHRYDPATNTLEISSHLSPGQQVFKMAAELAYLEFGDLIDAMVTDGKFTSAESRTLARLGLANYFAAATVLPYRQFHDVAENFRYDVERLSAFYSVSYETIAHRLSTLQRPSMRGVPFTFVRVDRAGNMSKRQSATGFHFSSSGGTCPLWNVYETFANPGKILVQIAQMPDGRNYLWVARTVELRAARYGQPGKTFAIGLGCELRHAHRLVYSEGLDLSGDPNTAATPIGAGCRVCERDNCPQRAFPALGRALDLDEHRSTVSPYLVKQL
The experiment in a line: SPR. To be noted: 50 mM Tris-HCl pH 7.5, 50 mM KCl, 10 mM MgCl2, 10% glycerol, 0.5 mM EDTA; […], SA chip).

Series [5] deals with 6HisRamB. The experiment in a line: SPR. To be noted: 50 mM Tris-HCl pH 7.5, 50 mM KCl, 10 mM MgCl2, 10% glycerol, 0.5 mM EDTA; […], SA chip).

For orientation: Kd means the equilibrium constant for the complex coming apart. The low end stands for a tighter complex, the high end for a looser complex.

“GGGTGCCTCCGATCCGAGCTCGGACTCGGCAAGTACCGCCACTTTCATGACCGCGCGAGGTGGTGCGTCGGGAGCGCTACTGGTGTTCGTGTTCGCTGACGACATGTAGCGGGCAGCTCCTCTTCCGGGCGGTTCGTTTGCAAACGATACGCATGCTGTGTGTAGATTTCCCACCTCCCGACAGCCGAGACGACGACATGTGCTGGAGTTATTGCCTTCGACTTGACGGTTGATCGTTAGCACC (double strand) [pkstR]” yielded a Kd in series [1] of 25 nM. Besides, the binding result in series [2] is “binds”.

For “GGTGCTCCGCGCTCTTCGGGGTGCCGACGACAGACATAGACAACTCCTTAACGGTCTTTCATTGCCGAAAACGCTGACGCCCTACCGTCGTCCAGGCGGTGTCAACGGCGCAGCTTCACTGGTGTGCTAACTCGACCATGGCACAGCGTGTCAACGCTGGTCCACCCATTTCACTTGCGAATTTCGGCAACGGCCTGCGGACTTTTTGCAAATTTTGCGAAGTCGCCCAAAAACTGAACCGTTTCAGAAGCTACCCGCCAGTAACGACAAATCCGCAGGTAAACCCCC (double strand) [picl1]”, the binding entry in series [2] is “binds”.

In the case of pkstR, the Kd in series [3] turned out to be 25 nM.

On to “GGCGGTCGAACACGTCGGGGTGACCGTCGGGCACGGGCATCAATTTTTTGTCGAGGCTCACGGCGTTCTCCCCATTTCCTCCTCGCGTGTACCTCAGGCTCACCCTTGAGTCCCGGTGCGAATCATGCCAACGCCGTGGCGGAAACACCAATCGCAGCACGCTTGCTAACTCTGCGAATGGCGTCTTCACAACACCCGGTACGCTCGGTTGGGTGTCCAAGACCTACGTCGGCTCGCGGGTCCGCCAACTGCCC (double strand) [pramB]”, for which the dissociation constant Kd is 328 nM with 6HisRamB [4] and 32 nM in series [1]. In addition, the binding entry in series [2] is “binds”.

Turning to pramB, the results for the dissociation constant Kd (in the series with 6HisRamB [5]; in series [3]) were 328 nM and 32 nM, respectively.

The record behind these values is publication PMC3420887.
